Consider 1 molecule from patent US6365161 (Bristol-Myers Squibb, dated 2002).

For this test, the target named is T1, carcinoembryonic antigen (CEA) (UniProt P06731 35-685).
T1 sequence (looked up): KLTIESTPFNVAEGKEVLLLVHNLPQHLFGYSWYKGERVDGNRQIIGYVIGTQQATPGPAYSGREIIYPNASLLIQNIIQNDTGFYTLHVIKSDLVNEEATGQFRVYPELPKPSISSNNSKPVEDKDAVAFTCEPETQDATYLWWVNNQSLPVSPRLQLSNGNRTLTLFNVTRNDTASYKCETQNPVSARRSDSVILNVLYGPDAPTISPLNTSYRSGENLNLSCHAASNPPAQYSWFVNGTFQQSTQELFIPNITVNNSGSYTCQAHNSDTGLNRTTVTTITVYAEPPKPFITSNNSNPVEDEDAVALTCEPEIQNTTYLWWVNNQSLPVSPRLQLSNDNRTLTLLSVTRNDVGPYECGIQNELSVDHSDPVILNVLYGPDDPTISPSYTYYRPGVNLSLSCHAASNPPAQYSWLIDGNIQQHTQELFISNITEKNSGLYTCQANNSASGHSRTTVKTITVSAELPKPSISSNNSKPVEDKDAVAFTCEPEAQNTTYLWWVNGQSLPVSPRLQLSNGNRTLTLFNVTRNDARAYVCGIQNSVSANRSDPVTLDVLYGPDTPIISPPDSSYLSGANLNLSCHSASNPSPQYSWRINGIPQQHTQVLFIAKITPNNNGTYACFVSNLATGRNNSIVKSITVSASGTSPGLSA
The experiment in a line: bispecific ELISA, plates coated with CEA, detection with soluble FcγRI/IgM-µ. A general note: ELISA stands for enzyme-linked immunosorbent assay.

Text: ELISA plates are coated with CEA and the blocked with 5% PBA.

B1: single chain antibody H22 encoded by construct 225 (scFv)
scFv: DIQLVESGGGVVQPGRSLRLSCSSSGFIFSDNYMYWVRQAPGKGLEWVATISDGGSYTYYPDSVKGRFTISRDNSKNTLFLQMDSLRPEDTGVYFCARGYYRYEGAMDYWGQGTPVTVSSGGGGSGGGGSGGGGSDIQLTQSPSSLSASVGDRVTITCKSSQSVLYSSNQKNYLAWYQQKPGKAPKLLIYWASTRESGVPSRFSGSGSGTDFTFTISSLQPEDIATYYCHQYLSSWTFGQGTKVEIKSSCSSGGGGSDIAAAEQKLISEEDLNGAAHHHHHH
notes: also called single chain H22 antibody
As to B1, the binding result is recorded as “no binding”.
